Reference: patent publication US20150045540A1 (published 2015)

T1: Placenta Growth Factor (PlGF), human (human, UniProt P49763 21-149)
T1 chain: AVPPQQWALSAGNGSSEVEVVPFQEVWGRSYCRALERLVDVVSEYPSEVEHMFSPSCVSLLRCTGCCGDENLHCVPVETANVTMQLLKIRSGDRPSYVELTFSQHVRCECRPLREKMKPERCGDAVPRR

B1: HC 2/SLC 7 (antibody)
chain 1: GQGTLVTVSSASQPVLHQPPAMSSALGTTIRLTCTLRNDHDIGVYSVYWYQQRPGHPPRFLLRYFSQSDKSQGPQVPPRFSGSKDVARNRGYLSISELQPEDEAMYYCAMGARSRCWPRGFQSKHNSVTHVFGSGTQLTVLSQPKATPSVTLFPPSSEELQANKATLVCLMNDFYPGILTVTWKADGTPITQGVEMTTPSKQSNNKYAASSYLSLTPEQWRSRRSYSCQVMHEGSTVEKTVAPAECS
chain 2: MSWAPVLLMLFVYCTGCGPQPVLHQPPAMSSALGTTIRLTCTLRNDHDIGVYSVYWYQQRPGHPPRFLLRYFSQSDKSQGPQVPPRFSGSKDVARNRGYLSISVTHVFGSGTQLTVLSQPKATPQVQLVQ
B2: HC 10/SLC 7 (antibody)
chain 1: GQGTLVTVSSASTKGPSVFPQPVLHQPPAMSSALGTTIRLTCTLRNDHDIGVYSVYWYQQRPGHPPRFLLRYFSQSDKSQGPQVPPRFSGSKDVARNRGYLSISELQPEDEAMYYCAMGARSRCWPRGFQSKHNSVTHVFGSGTQLTVLSQPKATPSVTLFPPSSEELQANKATLVCLMNDFYPGILTVTWKADGTPITQGVEMTTPSKQSNNKYAASSYLSLTPEQWRSRRSYSCQVMHEGSTVEKTVAPAECS
chain 2: B1 chain 2
B3: HC 3/SLC 15 (antibody)
chain 1: GQGTLVTVSSASTQPVLHQPPAMSSALGTTIRLTCTLRNDHDIGVYSVYWYQQRPGHPPRFLLRYFSQSDKSQGPQVPPRFSGSKDVARNRGYLSISELQPEDEAMYYCAMGARSRCWPRGFQSKHNSVTHVFGSGTQLTVLSQPKATPSVTLFPPSSEELQANKATLVCLMNDFYPGILTVTWKADGTPITQGVEMTTPSKQSNNKYAASSYLSLTPEQWRSRRSYSCQVMHEGSTVEKTVAPAECS
chain 2: MSWAPVLLMLFVYCTGCGPQPVLHQPPAMSSALGTTIRLTCTLRNDHDIGVYSVYWYQQRPGHPPRFLLRYFSQSDKSQGPQVPPRFSGSKDVARNRGYLSISVTHVFGSGTQLTVLSQPKATPSVTGGGGSQVQLVQ
B4: HC 8/SLC 4 (antibody)
chain 1: GQGTLVTVSSASTKGPSVQPVLHQPPAMSSALGTTIRLTCTLRNDHDIGVYSVYWYQQRPGHPPRFLLRYFSQSDKSQGPQVPPRFSGSKDVARNRGYLSISELQPEDEAMYYCAMGARSRCWPRGFQSKHNSVTHVFGSGTQLTVLSQPKATPSVTLFPPSSEELQANKATLVCLMNDFYPGILTVTWKADGTPITQGVEMTTPSKQSNNKYAASSYLSLTPEQWRSRRSYSCQVMHEGSTVEKTVAPAECS
chain 2: MSWAPVLLMLFVYCTGCGPQPVLHQPPAMSSALGTTIRLTCTLRNDHDIGVYSVYWYQQRPGHPPRFLLRYFSQSDKSQGPQVPPRFSGSKDVARNRGYLSISVTHVFGSGTQLTVLSQPKQVQLVQ
B5: HC 4/SLC 4 (antibody)
chain 1: GQGTLVTVSSASTKQPVLHQPPAMSSALGTTIRLTCTLRNDHDIGVYSVYWYQQRPGHPPRFLLRYFSQSDKSQGPQVPPRFSGSKDVARNRGYLSISELQPEDEAMYYCAMGARSRCWPRGFQSKHNSVTHVFGSGTQLTVLSQPKATPSVTLFPPSSEELQANKATLVCLMNDFYPGILTVTWKADGTPITQGVEMTTPSKQSNNKYAASSYLSLTPEQWRSRRSYSCQVMHEGSTVEKTVAPAECS
chain 2: B4 chain 2
B6: HC 7/SLC 6 (antibody)
chain 1: GQGTLVTVSSASTKGPSQPVLHQPPAMSSALGTTIRLTCTLRNDHDIGVYSVYWYQQRPGHPPRFLLRYFSQSDKSQGPQVPPRFSGSKDVARNRGYLSISELQPEDEAMYYCAMGARSRCWPRGFQSKHNSVTHVFGSGTQLTVLSQPKATPSVTLFPPSSEELQANKATLVCLMNDFYPGILTVTWKADGTPITQGVEMTTPSKQSNNKYAASSYLSLTPEQWRSRRSYSCQVMHEGSTVEKTVAPAECS
chain 2: MSWAPVLLMLFVYCTGCGPQPVLHQPPAMSSALGTTIRLTCTLRNDHDIGVYSVYWYQQRPGHPPRFLLRYFSQSDKSQGPQVPPRFSGSKDVARNRGYLSISVTHVFGSGTQLTVLSQPKATQVQLVQ

Biological target: T1, Placenta Growth Factor (PlGF), human
Assay: ELISA

Row | EC50 [nM] | Binder
1 | 0.148 | B1
2 | 0.056 | B2
3 | 0.057 | B3
4 | 0.281 | B4
5 | 0.196 | B5
6 | 0.153 | B6

What follows are binders tested against Hepatocyte Growth Factor (HGF), human (human, UniProt P14210 32-728) (assay: ELISA).
Chain of Hepatocyte Growth Factor (HGF), human (P14210 32-728): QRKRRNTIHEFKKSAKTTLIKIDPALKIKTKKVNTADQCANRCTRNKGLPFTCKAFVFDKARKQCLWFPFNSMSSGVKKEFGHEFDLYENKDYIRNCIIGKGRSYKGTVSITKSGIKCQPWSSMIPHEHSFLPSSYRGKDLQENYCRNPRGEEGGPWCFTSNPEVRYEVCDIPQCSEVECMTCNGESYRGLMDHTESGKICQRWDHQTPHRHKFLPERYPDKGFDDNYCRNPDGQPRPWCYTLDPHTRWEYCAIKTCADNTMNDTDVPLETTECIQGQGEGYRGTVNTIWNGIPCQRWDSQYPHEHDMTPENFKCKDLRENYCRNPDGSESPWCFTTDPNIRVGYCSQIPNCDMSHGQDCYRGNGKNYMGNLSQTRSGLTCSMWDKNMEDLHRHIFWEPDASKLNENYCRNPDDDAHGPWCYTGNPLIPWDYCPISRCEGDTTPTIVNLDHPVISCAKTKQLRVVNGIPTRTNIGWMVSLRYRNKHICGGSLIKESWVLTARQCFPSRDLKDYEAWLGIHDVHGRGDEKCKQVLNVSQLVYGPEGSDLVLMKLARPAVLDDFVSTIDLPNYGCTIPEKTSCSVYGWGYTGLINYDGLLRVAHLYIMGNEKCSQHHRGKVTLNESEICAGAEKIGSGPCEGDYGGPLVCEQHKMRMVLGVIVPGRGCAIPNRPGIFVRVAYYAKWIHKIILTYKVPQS

Row | EC50 [nM] | Binder
7 | 0.055 | B1
8 | 0.059 | B2
9 | ~0.041 | B3
10 | 0.071 | B4
11 | 0.058 | B5
12 | 0.062 | B6
